Results published in patent publication US20220289848A1.

What was measured:
CD47 = CD47 (UniProt Q08722); assay: FACS binding, CHO-K1 cells expressing CD47; flat curve
PD-L1 = PD-L1 (UniProt Q9NZQ7); assay: FACS binding, CHO-K1 cells expressing PD-L1; flat curve
[1] = biological target: human PD-L1 on PD-L1 aAPC/CHO-K1 Cells (human) (UniProt Q9NZQ7); assay: cell-based or functional assay
Sequence of human PD-L1 on PD-L1 aAPC/CHO-K1 Cells (human) (Q9NZQ7 19-290): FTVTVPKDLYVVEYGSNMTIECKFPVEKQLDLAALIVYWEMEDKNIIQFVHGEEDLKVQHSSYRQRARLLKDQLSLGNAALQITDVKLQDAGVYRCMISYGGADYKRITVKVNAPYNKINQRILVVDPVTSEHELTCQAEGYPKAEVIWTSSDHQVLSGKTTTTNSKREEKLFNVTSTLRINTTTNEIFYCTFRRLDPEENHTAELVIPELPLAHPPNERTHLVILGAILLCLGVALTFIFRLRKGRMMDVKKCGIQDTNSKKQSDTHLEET

Sequence of PD-L1 (Q9NZQ7 19-290): as above

| EC50 (CD47) [nM] | EC50 (PD-L1) [nM] | PD-1/PD-L1 blockade bioassay, relative activity (reference) [1] [%] | Substance |
| --- | --- | --- | --- |
| 0.00446 | 38.3 |  | Human IgG |
|  |  | 100 | Tecentriq biosimilar (antibody) |
